According to patent US6753317:
Non-standard residues stand in square brackets, D forms with d. *: point of attachment. des‑NH2‑α‑pyrrolidine‑1‑yl = Dmt (2',6'-dimethyl-L-tyrosine) with the α-amine replaced by pyrrolidine-1-yl, Cc1cc(O)cc(C)c1C[C@@H](C(=O)*)N1CCCC1; des‑NH2‑α‑pyrrole‑1‑yl = replacement of the α-amino group by a pyrrol-1-yl group; NH(1-Adamantyl) = C1C2CC3CC1CC(N*)(C2)C3; Dmt = Cc1cc(O)cc(C)c1C[C@H](N)C(=O)O; NH‑tetrazole‑5‑yl = n1nc(N*)n[nH]1; Tic = O=C(O)[C@@H]1Cc2ccccc2CN1; dTic = O=C(O)[C@H]1Cc2ccccc2CN1; NHtBu = CC(C)(C)N*

B1: H-Dmt-Tic-Ala-NH-tBu (peptide)
peptide: H-[Dmt]-[Tic]-Ala-NHtBu
SMILES: Cc1cc(O)cc(C)c1C[C@H](N)C(=O)N1Cc2ccccc2C[C@H]1C(=O)N[C@@H](C)C(=O)NC(C)(C)C
B2: H-Dmt-Tic-NH-1-adamantane (peptide)
peptide: H-[Dmt]-[Tic]-{NH(1-Adamantyl)}
SMILES: Cc1cc(O)cc(C)c1C[C@H](N)C(=O)N1Cc2ccccc2C[C@H]1C(=O)NC12CC3CC(CC(C3)C1)C2

The binders below were run against δ-opioid receptor of the mouse vas deferens (MVD) (mouse), P32300 (assay: cell-based or functional assay).
δ-opioid receptor of the mouse vas deferens (MVD) (mouse), P32300, sequence (P32300 whole entry, stated change not applied): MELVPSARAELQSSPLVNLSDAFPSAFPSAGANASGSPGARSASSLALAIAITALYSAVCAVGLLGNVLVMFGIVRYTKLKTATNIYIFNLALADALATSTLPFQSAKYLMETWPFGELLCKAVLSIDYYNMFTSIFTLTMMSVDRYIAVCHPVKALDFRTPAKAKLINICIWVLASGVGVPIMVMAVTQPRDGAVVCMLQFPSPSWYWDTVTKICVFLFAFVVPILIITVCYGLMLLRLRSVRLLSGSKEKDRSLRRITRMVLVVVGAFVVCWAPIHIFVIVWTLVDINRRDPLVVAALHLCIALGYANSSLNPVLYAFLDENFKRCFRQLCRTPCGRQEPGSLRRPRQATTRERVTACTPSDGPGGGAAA

Binder | MVD Ke | MVD pA2 | MVD ED50
H-[Dmt]-[Tic]-{NH‑tetrazole‑5‑yl} [H-Dmt-Tic-NH-tetrazole-5-yl] | 36.3 nM | 7.44 | 
H-[Dmt]-[Tic]-NHMe [H-Dmt-Tic-NHMe] | > 10000 nM |  | 21200 nM
{N,N‑dimethyl}-[Dmt]-[Tic]-{NH(1-Adamantyl)} [N,N(Me)2-Dmt-Tic-NH-1-adamantane] | 0.87 nM | 9.06 | 
{des‑NH2‑α‑pyrrolidine‑1‑yl}-[Dmt]-[Tic]-OH [[des-NH2-α-pyrrolidine-1-yl]-Dmt-Tic-OH] | 121 nM | 6.9 | 
H-[Dmt]-[dTic]-{NH(1-Adamantyl)} [H-Dmt-D-Tic-NH-1-adamantane] | > 10000 nM |  | 
{N,N‑dimethyl}-[Dmt]-[dTic]-{NH(1-Adamantyl)} [N,N(Me)2-Dmt-D-Tic-NH-1-adamantane] | 128 nM | 6.91 | 
H-[Dmt]-[Tic]-Ala-OH [H-Dmt-Tic-Ala-OH] | 4 nM | 8.4 | 
B1 | 0.69 nM | 9.16 | 
B2 | > 10000 nM |  | 870 nM
H-[Dmt]-[Tic]-NH2 [H-Dmt-Tic-NH2] | 42 nM | 7.2 | 
H-[Dmt]-[Tic]-Ala-NH2 [H-Dmt-Tic-Ala-NH2] | 9 nM | 8 | 
{N,N‑dimethyl}-[Dmt]-[Tic]-OH (also: tritium-labelled form used as radioligand) [N,N(Me)2-Dmt-Tic-OH] | 0.28 nM | 9.4 | 
H-[Dmt]-[Tic]-Ala-NHMe (SMILES CNC(=O)[C@H](C)NC(=O)[C@@H]1Cc2ccccc2CN1C(=O)[C@@H](N)Cc1c(C)cc(O)cc1C) [H-Dmt-Tic-Ala-NHMe] |  |  | 1290 nM
{des‑NH2‑α‑pyrrole‑1‑yl}-[Dmt]-[Tic]-OH [[des-NH2-α-pyrrole-1-yl]-Dmt-Tic-OH] | 408 nM | 6.39 | 
{N,N‑dimethyl}-[Dmt]-[Tic]-NHMe [N,N(Me)2-Dmt-Tic-NHMe] | 0.41 nM | 9.39 | 
H-[Dmt]-[Tic]-Ala-{NH(1-Adamantyl)} [H-Dmt-Tic-Ala-NH-1-adamantane] | 0.51 nM | 9.29 | 
